From patent publication US20240166767A1 (SCIRHOM, published 2024)

Molecular target: T1, endogenous human iRhom1 (RH-30 cells) (human, UniProt Q96CC6 1-855)
T1 construct: RH-30 cells are described as endogenously negative for iRhom2 but endogenously expressing iRhom1; also called iRhom1 endogenously expressed by RH-30 cells
T1 sequence: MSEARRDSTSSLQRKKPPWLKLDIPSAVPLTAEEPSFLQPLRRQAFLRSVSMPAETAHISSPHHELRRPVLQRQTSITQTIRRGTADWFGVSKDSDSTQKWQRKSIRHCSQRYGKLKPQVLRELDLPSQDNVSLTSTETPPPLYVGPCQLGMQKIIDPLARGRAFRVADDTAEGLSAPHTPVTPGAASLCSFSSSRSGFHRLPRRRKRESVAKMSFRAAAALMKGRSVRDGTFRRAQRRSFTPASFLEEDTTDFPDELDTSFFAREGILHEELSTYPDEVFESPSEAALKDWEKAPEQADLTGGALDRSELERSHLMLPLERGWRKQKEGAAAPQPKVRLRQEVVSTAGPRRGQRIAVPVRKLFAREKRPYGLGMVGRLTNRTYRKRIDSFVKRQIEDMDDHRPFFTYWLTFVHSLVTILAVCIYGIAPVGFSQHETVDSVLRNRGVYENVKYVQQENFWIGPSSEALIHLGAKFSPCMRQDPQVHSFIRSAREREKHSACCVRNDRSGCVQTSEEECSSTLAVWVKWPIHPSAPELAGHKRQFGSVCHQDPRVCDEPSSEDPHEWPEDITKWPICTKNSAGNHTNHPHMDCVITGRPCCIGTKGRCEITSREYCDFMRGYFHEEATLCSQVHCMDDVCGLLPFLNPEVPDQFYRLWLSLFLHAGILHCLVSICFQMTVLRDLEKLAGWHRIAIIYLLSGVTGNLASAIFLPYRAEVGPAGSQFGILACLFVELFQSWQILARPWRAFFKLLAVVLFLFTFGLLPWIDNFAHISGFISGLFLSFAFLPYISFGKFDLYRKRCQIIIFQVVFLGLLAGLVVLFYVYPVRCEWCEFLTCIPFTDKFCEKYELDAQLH
Experiment: FACS on RH-30 cells (endogenously negative for iRhom2, endogenously expressing iRhom1)
Procedure: In brief, human RPMI-8226 cells (Deutsche Sammlung von Mikroorganismen und Zellkulturen, Germany), THP-1 cells (American Type Culture Collection, USA) and RH-30 cells (Deutsche Sammlung von Mikroorganismen und Zellkulturen, Germany) were harvested with 10 mM EDTA in PBS, washed and resuspended in FACS buffer (PBS, 3% FBS, 0.05% sodium azide), and seeded in Nunc U-bottom 96-well plates (Thermo Fisher Scientific, USA) at approximately 2×10⁵ cells per well. In order to pellet cells and remove supernatants, the plates were centrifuged at 1,500 rpm and 4° C. for 3 minutes. For primary staining, cells were resuspended in 100 μl per well of either FACS buffer alone (controls) or […] of the antibodies of the invention in FACS buffer and incubated on ice for 1 hour. Afterwards, plates were centrifuged at 1,500 rpm and 4° C. for 3 minutes and washed twice with 200 μl per well of FACS buffer. For secondary staining, cells were spun down and resuspended in 100 μl per well of PE-conjugated goat anti-human IgG F(ab′)2 detection fragment (Dianova, Germany) diluted 1:100 in FACS buffer. Protected from light, the cell suspensions were incubated on ice for 1 hour. […] Finally, cells were resuspended in 150 μl per well of FACS buffer and analyzed using a BD Accuri™ C6 Plus flow cytometer (Becton Dickinson, Germany).

B1: humanized antibody 42-B-02 (antibody, V domains shown)
VH: QVTLRESGPALVKPTQTLTLTCTFSGFSLSTFGRGVGWIRQPPGKALEWLAHIWWDDEKYYNSALKSRLTISKDTSKNQVVLTITNMDPVDTATYYCARIQNYGSNYWYFDVWGQGTLVTVSS
VL: AIQLTQSPSSLSASVGDRVTITCRASSRISYMFWYQQKPGKAPKVLIYDTSNLASGVPSRFSGSGSGTDYTLTISSLQPEDFATYYCQQWNSYPLTFGQGTKLEIK
notes: Tested as whole humanized antibody from transient expression of heavy chain/kappa light chain pairs in CHO cells, detected with anti-human IgG; the general methods speak of human IgG1/Kappa; also called clone 42-B-02
binding result: no binding (tested: 3 µg/ml)
